Consider eleven molecules from patent US20230106131A1 (OHIO STATE INNOVATION FOUNDATION, published 2023).

Numbered stars: 1 amine (or outer) side, 2 acyl side, 3 side chain; on linkers, the order of the positions; unused ones are H or OH. Bridge positions count the residues as written; N and C are the ends. Square brackets hold non-standard residues; d marks the D form. Side chains are listed from the residue outwards. Ends that are not written are not given here. * marks the point of attachment. aminooxyacetyl = aminooxyacetyl (from Boc-aminooxyacetyl acylation of Lys side-chain amine), NOCC(=O)*; 2Nal = N[C@@H](Cc1ccc2ccccc2c1)C(=O)O; mXylylene = c1cc(C[*:1])cc(C[*:2])c1; CH2COCH2 = O=C(C[*:1])C[*:2]; hCys = N[C@@H](CCS)C(=O)O; AEEA = NCCOCCOCC(=O)O

For orientation: Kd means the constant that tells how readily two partners part at equilibrium. Low values mean higher affinity, high ones lower affinity. In general, IC50 refers to the concentration at which inhibition is half-maximal.

The target in test [1] is T1, GST-MDM2 (human MDM2 residues 17-125) (human, UniProt Q00987 17-125).
T1 construct: range 17-125; No removal of GST is reported; not shown: glutathione S-transferase (GST) tag encoded by vector pGEX-6P-2
Description: direct binding of the FITC-labeled peptide to MDM2.

Test [2] concerns the target T1, GST-MDM2 (human MDM2 residues 17-125). Kind of test: ratio of KD values of FITC-labeled peptides.
For test [3] the target is unchanged. Description: direct binding of the FITC-labeled peptide to MDM2. This is another data set of the same source.
For test [4] the target is unchanged. Description: direct binding of the FITC-labeled peptide to MDM2 (the text differs from Table 7).
The target is the same in test [5]. Kind of test: fluorescence anisotropy competition with FITC-labeled peptide 1 for MDM2. (In general: Polarisation of emitted light reports the rotation of a fluorescent probe.)

B1: peptide 7, Ac-LTFCHYWCQLTS-miniPEG-K(FITC)-NH2, stapled with BBA-CPP9 (peptide)
peptide 1: LTFCHYWCQLTS
peptide 2: FXRRRRQ
modifications: head-to-tail cyclic; D-Phe at 1, L-2-naphthylalanine at 2, D-Arg at 4 and 6; miniPEG-Lys linker, with the Lys side chain acylated by the BBA staple; N-terminal acetyl; Cys 4 and Cys 8 joined by a 3,5-dimethylbenzoyl (BBA) staple that carries CPP9; C-terminal miniPEG-Lys(FITC) amide
In the case of B1, in test [1], the Kd was approximately 300 nM. For the same molecule, the “fold decrease of MDM2 binding affinity against peptide 6” value in test [2] is approximately 2 fold.

B2: peptide 11, Ac-ETFCHYWCQLTS-miniPEG-K(FITC)-NH2, stapled with BBA-CPP9 (peptide)
peptide 1: ETFCHYWCQLTS
peptide 2: FXRRRRQ
modifications: head-to-tail cyclic; D-Phe at 1, L-2-naphthylalanine at 2, D-Arg at 4 and 6; miniPEG-Lys linker, with the Lys side chain acylated by the BBA staple; N-terminal acetyl; Cys 4 and Cys 8 joined by a 3,5-dimethylbenzoyl (BBA) staple that carries CPP9; C-terminal miniPEG-Lys(FITC) amide
Consider B2, for which, in test [1], the Kd is 225 nM. Also, the “fold decrease of MDM2 binding affinity against peptide 10” value in test [2] was determined as 6 fold.

B3: peptide 3 (PDI with homocysteine at His-5 and Gln-9, stapled with DCA, FITC-labeled) (peptide)
peptide: LTFEXYWAXLTS
modifications: not fully specified; homocysteine at 5 and 9, joined by a 1,3-dichloroacetone (DCA) staple; FITC label; the rest of the structure only in drawing CHEM-US-00020
notes: X stands for homocysteine
In test [3], B3 showed a Kd of 171 nM.

B4: peptide 6, Ac-LTFCHYWCQLTS-miniPEG-K(FITC)-NH2, stapled (peptide)
peptide: Ac-LTFCHYWCQLTS-{AEEA-K(FITC)-NH2}
modifications: bridge 4-8; not fully specified (bridges); printed as Ac-LTFCHYWCQLTS-miniPEG-K(FITC)-NH
notes: No CPP
In test [1], B4 came in with a Kd of 190 nM. In test [2], the “fold decrease of MDM2-binding affinity against peptide 1” value is approximately 2.5 fold.

B5: peptide 10, Ac-ETFCHYWCQLTS-miniPEG-K(FITC)-NH2, xylene-stapled (peptide)
peptide: Ac-ETFCHYWCQLTS-{AEEA-K(FITC)-NH2}
modifications: linker 4-8 via mXylylene
notes: No CPP
Regarding B5, the Kd in test [1] was 36 nM. In addition, the “fold improvement of binding affinity against peptide 6” value in test [2] was determined as 5 fold.

B6: peptide 13, Ac-EETFCHYWCQLTS-miniPEG-K(FITC)-NH2, stapled with BBA-CPP9 (peptide)
peptide 1: EETFCHYWCQLTS
peptide 2: FXRRRRQ
modifications: head-to-tail cyclic; D-Phe at 1, L-2-naphthylalanine at 2, D-Arg at 4 and 6; miniPEG-Lys linker, with the Lys side chain acylated by the BBA staple; N-terminal acetyl; Cys 5 and Cys 9 joined by a 3,5-dimethylbenzoyl (BBA) staple that carries CPP9; C-terminal miniPEG-Lys(FITC) amide
Consider B6, for which, in test [1], the affinity, expressed as Kd, was 365 nM.

B7: peptide 8, Ac-LTFhCHYWhCQLTS-miniPEG-K(FITC)-NH2, stapled (peptide)
peptide: Ac-LTF[hCys]HYW[hCys]QLTS-{AEEA-K(FITC)-NH2}
modifications: bridge 4-8; not fully specified (bridges)
notes: No CPP
Consider B7, for which the values for the Kd in test [4] and in test [1] were 14 nM and 15 nM, respectively. Moreover, the “fold improvement of MDM2 binding affinity against peptide 1” value in test [2] was 5 fold.

B8: peptide 2 (PDI with homocysteine at Glu-4 and Ala-8, stapled with DCA, FITC-labeled) (peptide)
peptide: LTFXHYWXQLTS
modifications: not fully specified; homocysteine at 4 and 8, joined by a 1,3-dichloroacetone (DCA) staple; FITC label; the rest of the structure only in drawing CHEM-US-00019
notes: X stands for homocysteine; also called 3-1-1-DCA
With B8, the Kd in test [3] is 144 nM. In other words, the sub-micromolar range.

B9: peptide 5 (DCA-stapled peptide 2 conjugated to CPP9 through an oxime, stereoisomer 2, unlabeled) (peptide)
peptide 1: LTF[hCys]HYW[hCys]QLTS
peptide 2: [dF][2Nal]R[dR]R[dR]Q([AEEA-Lys-aminooxyacetyl])
modifications: thioether (positions not given here) via CH2COCH2; not fully specified (bridges); also: oxime stereoisomer 2 (peak 2), Z/E not determined, further groups not given here, head-to-tail to a chain's N/C-terminus
notes: also called 3-1-1-DCA-CP9 peak2
Molecule B9 registered an IC50 in test [5] of 201 nM.

B10: peptide 12, Ac-EETFCHYWCQLTS-miniPEG-K(FITC)-NH2, xylene-stapled (peptide)
peptide: Ac-EETFCHYWCQLTS-{AEEA-K(FITC)-NH2}
modifications: linker 5-9 via mXylylene
notes: No CPP
For the molecule B10, in test [1], the Kd came to 187 nM.

B11: peptide 4 (DCA-stapled peptide 2 conjugated to CPP9 through an oxime, stereoisomer 1, unlabeled) (peptide)
peptide 1: LTF[hCys]HYW[hCys]QLTS
peptide 2: [dF][2Nal]R[dR]R[dR]Q([AEEA-Lys-aminooxyacetyl])
modifications: thioether (positions not given here) via CH2COCH2; not fully specified (bridges); also: oxime stereoisomer 1 (peak 1), Z/E not determined, further groups not given here, head-to-tail to a chain's N/C-terminus
notes: Peptides 4 and 5 are the two isomers separated by HPLC; also called 3-1-1-DCA-CP9 peak1
B11: in test [5], the IC50 came to 220 nM.
